Reference: article PMC9230926

Substrate: O=P(O)(O)OP(=O)(O)O
Experiment: purified protein
Settings: Mg2+ (MgPPi complex is the true substrate; free PPi inhibits)

B1: UDP-glucose pyrophosphorylase (UGPase) (Hordeum vulgare) (protein)
chain: MAAAAVAADSKIDGLRDAVAKLGEISENEKAGFISLVSRYLSGEAEQIEWSKIQTPTDEVVVPYDTLAPPPEDLDAMKALLDKLVVLKLNGGLGTTMGCTGPKSVIEVRNGFTFLDLIVIQIESLNKKYGCSVPLLLMNSFNTHDDTQKIVEKYSNSNIEIHTFNQSQYPRIVTEDFLPLPSKGQTGKDGWYPPGHGDVFPSLNNSGKLDTLLSQGKEYVFVANSDNLGAIVDIKILNHLIHNQNEYCMEVTPKTLADVKGGTLISYEGRVQLLEIAQVPDEHVDEFKSIEKFKIFNTNNLWVNLKAIKRLVDAEALKMEIIPNPKEVDGVKVLQLETAAGAAIRFFEKAIGINVPRSRFLPVKATSDLLLVQSDLYTLVDGYVIRNPARVKPSNPSIELGPEFKKVANFLARFKSIPSIVELDSLKVSGDVSFGSGVVLKGNVTIAAKAGVKLEIPDGAVLENKDINGPEDI
Km: 60 µM
